Laboratory results as given in patent publication US20230265198A1 (TWIST BIOSCIENCE, published 2023).

B1: NRP1-127 (antibody, IgG2, V domains shown)
VH: EVQLLESGGGLVQPGGSLRLSCAASGFTFSNYGVSWVRQAPGKGLEWVSYISSSGSSTYYADSVKGRFTISRDNSKNTLYLQMNSLRAEDTAVYYCAKGARRFDYWGQGTLVTVSS
VL: DIQMTQSPSSLSASVGDRVTITCRASHNINSYLNWYQQKPGKAPKLLIYGKKNRPSGVPSRFSGSGSGTDFTLTISSLQPEDFATYYCGQSYRYPLTFGQGTKVEIK
B2: NRP1-14 (VHH)
VHH: EVQLVESGGGLVQPGGSLRLSCAASGFTFRNFGMGWFRQAPGKEREFVSAISPGGVERYADSVKGRFTISADNSKNTAYLQMNSLKPEDTAVYYCATVGGYDYGYYYGMDVWGQGTLVTVSS
B3: NRP1-50 (VHH)
VHH: EVQLVESGGGLVQPGGSLRLSCAASGRTFNRYPMGWFRQAPGKEREWVAAISTSGGSTYYADSVKGRFTISADNSKNTAYLQMNSLKPEDTAVYYCAIHTSREIWGQGTLVTVSS
B4: NRP1-95 (VHH)
VHH: EVQLVESGGGLVQPGGSLRLSCAASGRTFNRYPMGWFRQAPGKEREWISALAPGGGNRYYADSVKGRFTISADNSKNTAYLQMNSLKPEDTAVYYCAIHTSREIWGQGTLVTVSS
B5: NRP1-45 (VHH)
VHH: EVQLVESGGGLVQPGGSLRLSCAASGRTFNRYPMGWFRQAPGKEREWVAAAHWSGGRMWYADSVKGRFTISADNSKNTAYLQMNSLKPEDTAVYYCAIHTSREIWGQGTLVTVSS
B6: NRP1-97 (VHH)
VHH: EVQLVESGGGLVQPGGSLRLSCAASGFDFDNFDDYAMGWFRQAPGKEREFVAEIGWRDTTLYADSVKGRFTISADNSKNTAYLQMNSLKPEDTAVYYCARGRYDLSDFDYWGQGTLVTVSS
B7: NRP1-98 (VHH)
VHH: EVQLVESGGGLVQPGGSLRLSCAASGLNLSRLDMGWFRQAPGKEREFVAAISWSGDSTNYADSVKGRFTISADNSKNTAYLQMNSLKPEDTAVYYCARIHKAPYYGMDVWGQGTLVTVSS
B8: NRP1-103 (VHH)
VHH: EVQLVESGGGLVQPGGSLRLSCAASGRTLSRYTMGWFRQAPGKERELVATITSGGSTGYADSVKGRFTISADNSKNTAYLQMNSLKPEDTAVYYCAKDKWGVRGEFDSWGQGTLVTVSS
B9: NRP1-112 (VHH)
VHH: EVQLVESGGGLVQPGGSLRLSCAASGNIFINNAMGWFRQAPGKERELVAAITSSSGRRWYADSVKGRFTISADNSKNTAYLQMNSLKPEDTAVYYCAAYQRGWGDWGQGTLVTVSS
B10: NRP1-94 (VHH)
VHH: EVQLVESGGGLVQPGGSLRLSCAASGRTFSTYASMGWFRQAPGKEREFVARIWPGGSTYYADSVKGRFTISADNSKNTAYLQMNSLKPEDTAVYYCARQFGAWLGEVVGPMDVWGQGTLVTVSS
B11: NRP1-113 (VHH)
VHH: EVQLVESGGGLVQPGGSLRLSCAASGHTFRGDVMGWFRQAPGKEREFVASISGSGTRTLYADSVKGRFTISADNSKNTAYLQMNSLKPEDTAVYYCARDVEGGWYGLSYGMDVWGQGTLVTVSS
B12: NRP1-120 (antibody, IgG2, V domains shown)
VH: EVQLLESGGGLVQPGGSLRLSCAASGFTFKSYGMHWVRQAPGKGLEWVSEISPSGKKKYYADSVKGRFTISRDNSKNTLYLQMNSLRAEDTAVYYCAAPNDQSAAFDYWGQGTLVTVSS
VL: DIQMTQSPSSLSASVGDRVTITCKASDHIGKFLTWYQQKPGKAPKLLIYPKHNRPPGVPSRFSGSGSGTDFTLTISSLQPEDFATYYCQQSYDNPLTFGQGTKVEIK
B13: NRP1-137 (antibody, IgG2, V domains shown)
VH: EVQLLESGGGLVQPGGSLRLSCAASGFTFSRYAMNWVRQAPGKGLEWVSTISSGGGYTYYPDSVKGRFTISRDNSKNTLYLQMNSLRAEDTAVYYCARSYGGGFDYWGQGTLVTVSS
VL: DIQMTQSPSSLSASVGDRVTITCQASQSISSYLAWYQQKPGKAPKLLIYPKHNRPPGVPSRFSGSGSGTDFTLTISSLQPEDFATYYCQQSYKSPLTFGQGTKVEIK
B14: NRP1-107 (VHH)
VHH: EVQLVESGGGLVQPGGSLRLSCAASGRTFSNSGMGWFRQAPGKEREFVAAISWNGGTTNYADSVKGRFTISADNSKNTAYLQMNSLKPEDTAVYYCATLGGTVSGSHWSYFYYMDVWGQGTLVTVSS
B15: NRP1-111 (VHH)
VHH: EVQLVESGGGLVQPGGSLRLSCAASGIAFRIRTMGWFRQAPGKERELVAAITSSSGRRWYADSVKGRFTISADNSKNTAYLQMNSLKPEDTAVYYCAARRIVNVEGAYRDWGQGTLVTVSS
B16: NRP1-271 (antibody, IgG2, V domains shown)
VH: EVQLLESGGGLVQPGGSLRLSCAASGFTFTTYGMSWVRQAPGKGLEWVSAISGSGGTTYYADSVKGRFTISRDNSKNTLYLQMNSLRAEDTAVYYCARVGPGRSIAARQGFKRRNNWFDPWGQGTLVTVSS
VL: DIQMTQSPSSLSASVGDRVTITCRARQSISTYLNWYQQKPGKAPKLLIYSASTLESGVPSRFSGSGSGTDFTLTISSLQPEDFATYYCQQSYRTPWTFGGGTKVEIK
B17: NRP1-101 (VHH)
VHH: EVQLVESGGGLVQPGGSLRLSCAASGRNRYGMGWFRQAPGKEREFVAAISRSGGSTNYADSVKGRFTISADNSKNTAYLQMNSLKPEDTAVYYCAKGGAQNYTWGQGTLVTVSS
B18: NRP1-211 (antibody, IgG2, V domains shown)
VH: EVQLLESGGGLVQPGGSLRLYCAASGFTFGSYGMSWVRQAPGKGLEWVSSISGSGGSTYYTDSVKGRFTISRDNSKNTLYLQMNSLRAEDTAVYYCVRALAGRRDHWGQGTLVTVSS
VL: DIQMTQSPSSLSASVGDRVTITCRASQTISNYVNWYQQKPGKAPKLLIYAASSLHAGVPSRFSGSGSGTDFTLTISSLQPEDFATYYCQQGYSTPLTFGGGTKVEIK
B19: NRP1-273 (antibody, IgG2, V domains shown)
VH: EVQLLESGGGLVQPGGSLRLYCAASGFTFGSYGMSWVRQAPGKGLEWVSSISGSGGSTYYTDSVKGRFTISRDNSKNTLYLQMNSLRAEDTAVYYCVRALAGRRDHWGQGTLVTVSS
VL: DIQMTQSPSSLSASVGDRVTITCRASRRISTYLNWYQQKPGKAPKLLIYAASSLHAGVPSRFSGSGSGTDFTLTISSLQPEDFATYYCQQGYSTPLTFGGGTKVEIK
B20: NRP1-10 (VHH)
VHH: EVQLVESGGGLVQPGGSLRLSCAASGFTFSMWPMGWFRQAPGKEREFVARITGGGSTIWSRGDTYYADSVKGRFTISADNSKNTAYLQMNSLKPEDTAVYYCARADYYDSSAFDYWGQGTLVTVSS
B21: NRP1-110 (VHH)
VHH: EVQLVESGGGLVQPGGSLRLSCAASGRTFSNYSMGWFRQAPGKEREFVASIWWTFDAPYYADSVKGRFTISADNSKNTAYLQMNSLKPEDTAVYYCAKWDGLGTLWGQGTLVTVSS
B22: NRP1-124 (antibody, IgG2, V domains shown)
VH: EVQLLESGGGLVQPGGSLRLSCAASGFDFSDYEMSWVRQAPGKGLEWVSRISVAGRRTAYADSVKGRFTISRDNSKNTLYLQMNSLRAEDTAVYYCAKGRRKLRATRFDYWGQGTLVTVSS
VL: DIQMTQSPSSLSASVGDRVTITCSGDKLRNKYASWYQQKPGKAPKLLIYETSKLASGVPSRFSGSGSGTDFTLTISSLQPEDFATYYCQQSFSVPAFGQGTKVEIK
B23: NRP1-108 (VHH)
VHH: EVQLVESGGGLVQPGGSLRLSCAASGNIPPINAMGWFRQAPGKEREWVATITSGGSTTYADSVKGRFTISADNSKNTAYLQMNSLKPEDTAVYYCARDRYFYDTSGNQRSSWFDPWGQGTLVTVSS
B24: NRP1-104 (VHH)
VHH: EVQLVESGGGLVQPGGSLRLSCAASGFSFDDYVMGWFRQAPGKEREFVARISTSGSWTGYADSVKGRFTISADNSKNTAYLQMNSLKPEDTAVYYCAINYSPGYPDHWGQGTLVTVSS
B25: NRP1-109 (VHH)
VHH: EVQLVESGGGLVQPGGSLRLSCAASGRTSRSYDMGWFRQAPGKEREFVASIDQSGESTAYADSVKGRFTISADNSKNTAYLQMNSLKPEDTAVYYCARADYYGSGSYFDYWGQGTLVTVSS
B26: NRP1-102 (VHH)
VHH: EVQLVESGGGLVQPGGSLRLSCAASGGTIRTMGWFRQAPGKEREFVATISWSGALTHYADSVKGRFTISADNSKNTAYLQMNSLKPEDTAVYYCAHRDNFWSAYYDFWGQGTLVTVSS
B27: NRP1-93 (VHH)
VHH: EVQLVESGGGLVQPGGSLRLSCAASGIPFRSRTMGWFRQAPGKEREFVATINTGGGTYADSVKGRFTISADNSKNTAYLQMNSLKPEDTAVYYCARHGDTYYYGSGTVRSLDYWGQGTLVTVSS
B28: NRP1-136 (antibody, IgG2, V domains shown)
VH: EVQLLESGGGLVQPGGSLRLSCAASGFTFKDYGMNWVRQAPGKGLEWVSVISGSGGRPNYADSVKGRFTISRDNSKNTLYLQMNSLRAEDTAVYYCARVWRNHLDYWGQGTLVTVSS
VL: DIQMTQSPSSLSASVGDRVTITCSGDRLGEKYVSWYQQKPGKAPKLLIYGKKNRPSGVPSRFSGSGSGTDFTLTISSLQPEDFATYYCQAWASSTVVFGQGTKVEIK

These binders were tested against T1, neuropilin-1 (NRP1) on HEK293 cells overexpressing NRP1 (UniProt O14786 22-923, limits assumed) (assay: flow cytometry, HEK293-NRP1 vs HEK293).
T1 construct: whole, on cells
For B1, the “100 nM FACS (MFI Ratio)” value was 2.1. For B2, the “100 nM FACS (MFI Ratio)” value was 15.4. For B3, the “100 nM FACS (MFI Ratio)” value was 5.9. For B4, the “100 nM FACS (MFI Ratio)” value was 1.5. In the case of B5, the “100 nM FACS (MFI Ratio)” value is reported as 6.6. B6 was tested, and the “100 nM FACS (MFI Ratio)” value was 1.7. In the case of B7, the “100 nM FACS (MFI Ratio)” value is reported as 1.2. With B8 the “100 nM FACS (MFI Ratio)” value was 6.2. For B9, the “100 nM FACS (MFI Ratio)” value was 0.7. B10 was tested, and the “100 nM FACS (MFI Ratio)” value was 2.8. B11 was tested, and the “100 nM FACS (MFI Ratio)” value was 0.4. For B12, the “100 nM FACS (MFI Ratio)” value was 5.2. For B13, the “100 nM FACS (MFI Ratio)” value was 1200. With B14 the “100 nM FACS (MFI Ratio)” value was 2.8. B15 was tested, and the “100 nM FACS (MFI Ratio)” value was 0.7. In the case of B16, the “100 nM FACS (MFI Ratio)” value is reported as 0.8. For B17, the “100 nM FACS (MFI Ratio)” value was 2.4. For B18, the “100 nM FACS (MFI Ratio)” value was 3.8. In the case of B19, the “100 nM FACS (MFI Ratio)” value is reported as 6.2. For B20, the “100 nM FACS (MFI Ratio)” value was 19.6. In the case of B21, the “100 nM FACS (MFI Ratio)” value is reported as 3.3. With B22 the “100 nM FACS (MFI Ratio)” value was 1200. B23 was tested, and the “100 nM FACS (MFI Ratio)” value was 0.9. For B24, the “100 nM FACS (MFI Ratio)” value was 6.2. With B25 the “100 nM FACS (MFI Ratio)” value was 2.1. In the case of B26, the “100 nM FACS (MFI Ratio)” value is reported as 2.5. B27 was tested, and the “100 nM FACS (MFI Ratio)” value was 1.4. With B28 the “100 nM FACS (MFI Ratio)” value was 128.
